{"source": "paper doi:10.1101/2022.07.22.501140", "assay_in_all_cases": "fluorescence polarization", "key": {"XlBicc1 N-term (KH1-KH3) [1]": {"molecular_target": "T1, XlBicc1 N-term (KH1-KH3) (Xenopus laevis, UniProt A0A1L8FE49 1-506)"}, "DmBicc1 N-term [2]": {"molecular_target": "T2, DmBicc1 N-term (Drosophila melanogaster, UniProt Q24009 1-506)", "T2 sequence": "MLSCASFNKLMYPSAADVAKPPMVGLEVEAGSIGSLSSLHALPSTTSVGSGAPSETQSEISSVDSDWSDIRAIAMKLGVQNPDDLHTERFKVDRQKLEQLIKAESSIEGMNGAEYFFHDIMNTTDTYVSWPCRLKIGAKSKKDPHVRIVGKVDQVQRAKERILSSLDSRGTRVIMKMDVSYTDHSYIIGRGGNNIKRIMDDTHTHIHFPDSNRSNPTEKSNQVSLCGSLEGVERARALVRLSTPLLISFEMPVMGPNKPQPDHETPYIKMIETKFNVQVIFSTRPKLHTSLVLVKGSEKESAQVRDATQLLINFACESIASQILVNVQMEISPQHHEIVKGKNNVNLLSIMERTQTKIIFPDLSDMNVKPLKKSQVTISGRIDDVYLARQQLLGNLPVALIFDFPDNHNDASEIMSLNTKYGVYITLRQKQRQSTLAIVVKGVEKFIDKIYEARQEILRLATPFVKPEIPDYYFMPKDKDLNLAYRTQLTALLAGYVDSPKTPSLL"}, "HsBicc1 N-term [3]": {"molecular_target": "T3, HsBicc1 N-term (human, UniProt Q9H694 1-506)", "T3 sequence (Q9H694 1-506)": "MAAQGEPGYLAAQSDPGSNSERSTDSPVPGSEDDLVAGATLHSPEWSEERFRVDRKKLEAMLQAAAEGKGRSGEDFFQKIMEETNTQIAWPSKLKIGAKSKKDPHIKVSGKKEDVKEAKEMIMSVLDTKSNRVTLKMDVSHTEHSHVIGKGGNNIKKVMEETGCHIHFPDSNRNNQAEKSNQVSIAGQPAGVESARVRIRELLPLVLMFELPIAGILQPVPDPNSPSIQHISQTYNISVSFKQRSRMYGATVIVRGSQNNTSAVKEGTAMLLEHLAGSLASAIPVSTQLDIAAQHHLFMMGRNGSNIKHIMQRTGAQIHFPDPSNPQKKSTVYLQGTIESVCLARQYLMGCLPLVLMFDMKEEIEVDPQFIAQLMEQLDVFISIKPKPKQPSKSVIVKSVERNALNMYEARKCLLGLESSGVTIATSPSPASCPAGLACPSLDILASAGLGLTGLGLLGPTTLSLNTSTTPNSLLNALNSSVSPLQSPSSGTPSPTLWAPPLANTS"}, "XlBicc1 N-term (KH1-KH3) [4]": {"molecular_target": "T1, XlBicc1 N-term (KH1-KH3)", "remark": "listed apart in the source"}, "HsBicc1 N-term [5]": {"molecular_target": "T3, HsBicc1 N-term", "remark": "listed apart in the source"}, "XlKH1-DmBicc1KH2-KH3 [6]": {"molecular_target": "T4, XlKH1-DmBicc1KH2-KH3 (Xenopus laevis / Drosophila …, UniProt A0A1L8FE49 1-134+Q24009:179-506, internal_change)"}, "DmBicc1 N-term [7]": {"molecular_target": "T2, DmBicc1 N-term", "remark": "listed apart in the source"}, "HsBicc1 N-term [8]": {"molecular_target": "T3, HsBicc1 N-term", "remark": "listed apart in the source"}, "XlBicc1 N-term (KH1-KH3) [9]": {"molecular_target": "T1, XlBicc1 N-term (KH1-KH3)", "remark": "listed apart in the source"}, "XlKH1-DmBicc1KH2-KH3 [10]": {"molecular_target": "T4, XlKH1-DmBicc1KH2-KH3", "remark": "listed apart in the source"}}, "note": "Like-named read-outs stand apart in the source and are kept apart here.", "data": [{"binder": "CGACUCUAGAAGGACUACGUGGCAUUCCAAUU (ssRNA)", "note": "[Cyclin B1 negative control RNA]", "values": [{"measurement": "binding result", "setting": "XlBicc1 N-term (KH1-KH3) [1]", "result": "no binding"}]}, {"binder": "CGACUCUAGAAGGUUGUACAUUAACAGCUCC (structured_RNA)", "note": "[Cripto-1 leader variant]", "values": [{"measurement": "binding result", "setting": "DmBicc1 N-term [2]", "result": "no binding"}, {"measurement": "binding result", "setting": "HsBicc1 N-term [3]", "result": "no binding"}, {"measurement": "binding result", "setting": "XlBicc1 N-term (KH1-KH3) [4]", "result": "no binding"}]}, {"binder": "CUUAUUAGACACGUUGUACAUUAACAGCUCC (structured_RNA)", "note": "[XlCripto-1 wild-type RNA site]", "values": [{"measurement": "binding result", "setting": "HsBicc1 N-term [5]", "result": "binds"}, {"measurement": "Kd", "setting": "DmBicc1 N-term [2]", "result": 93, "unit": "nM"}, {"measurement": "Kd", "setting": "XlKH1-DmBicc1KH2-KH3 [6]", "result": 89, "unit": "nM"}, {"measurement": "Kd", "setting": "XlBicc1 N-term (KH1-KH3) [4]", "result": 34, "unit": "nM"}]}, {"binder": "CUUAUUAGACACGUUGUCGCGAAACAGCUCC (structured_RNA)", "note": "[Cripto-1 loop variant]", "values": [{"measurement": "binding signal", "setting": "DmBicc1 N-term [7]", "result": "3.2 fold reduction vs wild-type RNA"}, {"measurement": "binding signal", "setting": "HsBicc1 N-term [8]", "result": "15 fold reduction vs wild-type RNA"}, {"measurement": "Kd", "setting": "XlBicc1 N-term (KH1-KH3) [9]", "result": "~12000", "unit": "nM"}, {"measurement": "binding result", "setting": "XlKH1-DmBicc1KH2-KH3 [10]", "result": "no binding"}]}]}
